Measured values as given in article PMC5766548.

Experiments:
enhanced GFP (EGFP) = assay: AUC; sedimentation velocity; 0.33, 0.65 and 1.3 mg mL^-1; 20 mM Tris pH 7.5, 150 mM NaCl; 50,000 rpm, 20 °C; absorbance at 280 nm; c(s) distributions and weight average sedimentation coefficients against concentration
[1] = molecular target: superfolder GFP (sfGFP) [GFP: P42212]; assay: SEC-SAXS; in-line Superdex 75 10/300 GL; 50 µL loaded at approximately 50 mg mL^-1 (> approximately 10 mg mL^-1 after dilution on the column); 25 mM Tris pH 7.5, 150 mM NaCl; profiles compared with CRYSOL curves of monomer and dimer of the usGFP crystal structure
[2] = molecular target: ultra-stable GFP (usGFP) [GFP: P42212]; assay: as above

## enhanced GFP (EGFP)
Enhanced GFP (EGFP)
  stoichiometry N: 2

## superfolder GFP (sfGFP) (from UniProt P42212 1-238)
[1]
  stoichiometry N: 2

## ultra-stable GFP (usGFP) (from UniProt P42212 1-238)
[2]
  stoichiometry N: 2
